Reference: patent US10323078B2, “Isolated peptides and fragments thereof from fibrinogen for use as drugs, particularly in skin inflammatory diseases” (Universite Paris Descartes, priority 2015, dated 2019)

Key:
Pfg = assay: Western ligand blot with biotinylated Pfg; assay type: binding, Propionibacterium acnes; conditions: biotinylated Pfg 0.1 μg/ml
P. acnes RON strain = assay: Adhesion assay, biotinylated P. acnes binding to fibroblasts (HDF); assay type: cell-based, Propionibacterium acnes; conditions: bacteria pretreated 0.87 to 7 μM, 1 h at 37° C.
Protocol: The bacterial suspension was adjusted at 600 nm to the desired concentration, pretreated with peptides Fg1 and Fg2 at the final concentration ranging from 0.87 to 7 μM for 1 h at 37° C. and deposited on the previously saturated cells with a solution of PBS SVF 2% for 2 h. After incubation for 1 h at 37° C., unbound bacteria are removed by 3 washes with PBS and fixed bacteria are detected by a streptavidin-peroxidase solution of 0.5 μg/ml for 30 min.
Whole P. acnes bacteria are labelled by biotinylation, pre-treated or not with the peptides and contacted with the various cell lines. After removal of the unfixed bacteria, the adhesion activity was measured spectrophotometrically by using the streptavidin-peroxidase conjugate and a chromogenic substrate.
The ability of P. acnes strains 6919, RON and PIE was tested at 3 concentrations to adhere to various cells lines. It has been shown that the strains of P. acnes tested bound to the three kind of cell lines tested (keratinocytes, monocytes and fibroblast) with a maximum adhesion strength found for keratinocytes (FIG. 11). Knowing that P. acnes is able to recognize fibrinogen, it was used human and bovine whole fibrinogen to compete the interaction between the bacteria and the target cell. […] Then, the ability Fg1 to inhibit the adhesion of bacteria and RON PIE was evaluated on the 3 main types cell. […]

Row | Molecule | Recognition by biotinylated Pfg after electrophoretic separation of fibrinogen (Pfg; 10 μg per lane, 10% SDS-PAGE) | Recognition of GST-fused recombinant Bß fibrinogen fragments by biotinylated Pfg (Pfg; E. coli total protein after IPTG induction, 12.5% SDS-PAGE) | Inhibition of adhesion of P. acnes RON strain (P. acnes RON strain)
1 | human fibrinogen: purified commercial human fibrinogen (Sigma), glycoprotein hexamer of Aα, Bß and γ chains | recognized by Pfg | – | –
2 | MKRMVSWSFHKLKTMKHLLLLLLCVFLVKSQGVNDNEEGFFSARGHRPLDKKREEAPSLRPAPPPISGGGYRARPAKAAATQKKVERKAPDAGGCLHADPDLGVLC (protein, GST fusion; fragment Fg1, fragment of Bß chain of human fibrinogen having 106 amino acids; recombinant GST-fused peptide expressed in E. coli) MKRMVSWSFHKLKTMKHLLLLLLCVFLVKSQGVNDNEEGFFSARGHRPLDKKREEAPSLRPAPPPISGGGRARPAKAAATQKKVERKAPDAGGCLHADPDLGVLCMKRMVSWSFHKLKTMKHLLLLLLCVFLVKSQGVNDNEEGFFSARGHRPLDKKREEAPSLRPAPPPISGGGYRARPAKAAATQKKVERKAPDAGGCLHADPDLGVLC | – | recognized | inhibits the adhesion of RON strain in a dose-dependent manner
